Test results as given in patent US20180179296A1.
Blank lines part the entries; values can stand above or below the substance they belong to.

What was measured:
[1] = biological target: Design 14 L2: D3H44 light chain Q124R_Q160K_T178R (humanized); test: light chain competition assay: heavy chain co-expressed with L1 and L2, SPR read-out of light-chain tags; competitor Design 14 L1
[2] = biological target: Design 14 L1: D3H44 light chain Q124E_Q160E_T178D (humanized); test: light chain competition assay: heavy chain co-expressed with L1 and L2, SPR read-out of light-chain tags; competitor Design 14 L2
[3] = biological target: tissue factor extracellular domains (human) (UniProt P13726); test: SPR (ProteOn XPR36), TF immobilised, heterodimer as analyte, 1:1 model
[4] = biological target: Design 11 L2: D3H44 light chain S176L (humanized); test: light chain competition assay: heavy chain co-expressed with L1 and L2, SPR read-out of light-chain tags; competitor Design 11 L1
[5] = biological target: Design 11 L1: D3H44 light chain V133S (humanized); test: light chain competition assay: heavy chain co-expressed with L1 and L2, SPR read-out of light-chain tags; competitor Design 11 L2
[6] = biological target: D3H44 light chain, wild type (Design 12 L2) (humanized); test: light chain competition assay: heavy chain co-expressed with L1 and L2, SPR read-out of light-chain tags; competitor Design 12 L1
[7] = biological target: Design 12 L1: D3H44 light chain L89R_F98W (humanized); test: light chain competition assay: heavy chain co-expressed with L1 and L2, SPR read-out of light-chain tags; competitor Design 12 L2 (WT)
[8] = biological target: Design 28 L2: D3H44 light chain F118W_V133S_S176A_T180E (humanized); test: light chain competition assay: heavy chain co-expressed with L1 and L2, SPR read-out of light-chain tags; competitor Design 28 L1
[9] = biological target: Design 28 L1: D3H44 light chain F116A_S131K_V133G_S176F_T178A (humanized); test: light chain competition assay: heavy chain co-expressed with L1 and L2, SPR read-out of light-chain tags; competitor Design 28 L2
[10] = biological target: Design 13 L2: D3H44 light chain V133A_Q160K_T178R (humanized); test: light chain competition assay: heavy chain co-expressed with L1 and L2, SPR read-out of light-chain tags; competitor Design 13 L1
[11] = biological target: Design 13 L1: D3H44 light chain Q124E_V133W_Q160E_T180E (humanized); test: light chain competition assay: heavy chain co-expressed with L1 and L2, SPR read-out of light-chain tags; competitor Design 13 L2
[12] = biological target: Design 15 L2: D3H44 light chain Q160K_T178R (humanized); test: light chain competition assay: heavy chain co-expressed with L1 and L2, SPR read-out of light-chain tags; competitor Design 15 L1
[13] = biological target: Design 15 L1: D3H44 light chain Q124E_Q160E_T178D (humanized); test: light chain competition assay: heavy chain co-expressed with L1 and L2, SPR read-out of light-chain tags; competitor Design 15 L2
[14] = biological target: Design 26 L2: D3H44 light chain F116A_S131K_L135A (humanized); test: light chain competition assay: heavy chain co-expressed with L1 and L2, SPR read-out of light-chain tags; competitor Design 26 L1
[15] = biological target: Design 26 L1: D3H44 light chain L135W (humanized); test: light chain competition assay: heavy chain co-expressed with L1 and L2, SPR read-out of light-chain tags; competitor Design 26 L2
[16] = biological target: Design 29 L2: D3H44 light chain Q124R (humanized); test: light chain competition assay: heavy chain co-expressed with L1 and L2, SPR read-out of light-chain tags; competitor Design 29 L1
[17] = biological target: Design 29 L1: D3H44 light chain Q124E_V133D (humanized); test: light chain competition assay: heavy chain co-expressed with L1 and L2, SPR read-out of light-chain tags; competitor Design 29 L2
[18] = biological target: Design 32 L2: D3H44 light chain Q38E_F98W (humanized); test: light chain competition assay: heavy chain co-expressed with L1 and L2, SPR read-out of light-chain tags; competitor Design 32 L1
[19] = biological target: Design 32 L1: D3H44 light chain Q38R (humanized); test: light chain competition assay: heavy chain co-expressed with L1 and L2, SPR read-out of light-chain tags; competitor Design 32 L2
[20] = biological target: Design 27 L2: D3H44 light chain F118W_Q124E_V133S_S176A_T178S_T180E (humanized); test: light chain competition assay: heavy chain co-expressed with L1 and L2, SPR read-out of light-chain tags; competitor Design 27 L1
[21] = biological target: Design 27 L1: D3H44 light chain F116A_V133G_S176F_T178A (humanized); test: light chain competition assay: heavy chain co-expressed with L1 and L2, SPR read-out of light-chain tags; competitor Design 27 L2
[22] = biological target: Design 31 L2: D3H44 light chain Q38D_F116A_L135A (humanized); test: light chain competition assay: heavy chain co-expressed with L1 and L2, SPR read-out of light-chain tags; competitor Design 31 L1
[23] = biological target: Design 31 L1: D3H44 light chain Q38R_L135W (humanized); test: light chain competition assay: heavy chain co-expressed with L1 and L2, SPR read-out of light-chain tags; competitor Design 31 L2
[24] = biological target: Design 30 L2: D3H44 light chain Q160K_T178R (humanized); test: light chain competition assay: heavy chain co-expressed with L1 and L2, SPR read-out of light-chain tags; competitor Design 30 L1
[25] = biological target: Design 30 L1: D3H44 light chain Q124E_Q160E_T180E (humanized); test: light chain competition assay: heavy chain co-expressed with L1 and L2, SPR read-out of light-chain tags; competitor Design 30 L2

- Kd [3]: 0.06 nM
Substance: Design 30 H2-L2 heterodimer (D3H44 heavy L143E_K145T, light Q160K_T178R) (Fab)

- H2 Readout [4]: 98%
- H2 Readout [5]: 1%
Substance: Design 11 H2: D3H44 heavy chain F174V_P175S_S188G

- Kd [3]: 0.052 nM
Substance: Wild-type D3H44 heterodimer (anti-tissue factor Fab, one heavy chain and one light chain)

- H2 Readout [12]: 83%
- H2 Readout [13]: 24%
Substance: Design 15 H2: D3H44 heavy chain K147T_Q175D_S183L

- H2 Readout [14]: 106%
- H2 Readout [15]: 1%
Substance: Design 26 H2: D3H44 heavy chain A139W_K145Y_Q175E

- Kd [3]: 0.082 nM
Substance: Design 15 H1-L1 heterodimer (D3H44 heavy D146G_Q175R, light Q124E_Q160E_T178D) (Fab)

- H2 Readout [10]: 87%
- H2 Readout [11]: 14%
Substance: Design 13 H2: D3H44 heavy chain K145T_Q179D_S188F

- H2 Readout [18]: 93%
- H2 Readout [19]: 1%
Substance: Design 32 H2: D3H44 heavy chain Q39R

- Kd [3]: 0.025 nM
Substance: Design 31 H1-L1 heterodimer (D3H44 heavy Q39D_A139G_V190A, light Q38R_L135W) (Fab)

- H2 Readout [20]: 85%
- H2 Readout [21]: 12%
Substance: Design 27 H2: D3H44 heavy chain S186K_S188H_V190G

- Kd [3]: 0.071 nM
Substance: Design 15 H2-L2 heterodimer (D3H44 heavy K147T_Q175D_S183L, light Q160K_T178R) (Fab)

- H2 Readout [22]: 78%
- H2 Readout [23]: 1%
Substance: Design 31 H2: D3H44 heavy chain Q39R_A139W

- H2 Readout [6]: 88%
- H2 Readout [7]: 15%
Substance: D3H44 heavy chain, wild type (Design 12 H2)

- H1 Readout [22]: 1%
- H1 Readout [23]: 106%
Substance: Design 31 H1: D3H44 heavy chain Q39D_A139G_V190A

- H1 Readout [16]: 1%
- H1 Readout [17]: 93%
Substance: Design 29 H1: D3H44 heavy chain L143K_D146G

- Kd [3]: 0.04 nM
Substance: Design 11 H2-L2 heterodimer (D3H44 heavy F174V_P175S_S188G, light S176L) (Fab)

- H1 Readout [20]: 1%
- H1 Readout [21]: 67%
Substance: Design 27 H1: D3H44 heavy chain A139I_K145T_D146G_Q179E_S188G_V190S

- H1 Readout [14]: 1%
- H1 Readout [15]: 92%
Substance: Design 26 H1: D3H44 heavy chain A139G_V190A

Second part, the substance before the results:

Substance: Design 14 H1: D3H44 heavy chain D148G_S181R
- H1 Readout [1]: 1%
- H1 Readout [2]: 84%

Substance: Design 12 H1: D3H44 heavy chain V37E_F100D
- H1 Readout [6]: 10%
- H1 Readout [7]: 99%

Substance: Design 28 H2: D3H44 heavy chain A139W_S186K_S188A
- H2 Readout [8]: 94%
- H2 Readout [9]: 1%

Substance: Design 13 H1: D3H44 heavy chain L143A_D144G_Q179R
- H1 Readout [10]: 1%
- H1 Readout [11]: 104%

Substance: Design 11 H1-L1 heterodimer (D3H44 heavy S188L_V190Y, light V133S) (Fab)
- Kd [3]: 0.043 nM

Substance: Design 28 H1: D3H44 heavy chain A139V_K145L_Q179E_S188G_V190S
- H1 Readout [8]: 4%
- H1 Readout [9]: 85%

Substance: Design 29 H2: D3H44 heavy chain L143E_K145T
- H2 Readout [16]: 102%
- H2 Readout [17]: 1%

Substance: Design 14 H2: D3H44 heavy chain K147E_D148G_Q175D_S183L
- H2 Readout [1]: 74%
- H2 Readout [2]: 2%

Substance: Design 32 H1: D3H44 heavy chain Q39E
- H1 Readout [18]: 1%
- H1 Readout [19]: 98%

Substance: Design 30 H1-L1 heterodimer (D3H44 heavy D146G_Q179K, light Q124E_Q160E_T180E) (Fab)
- Kd [3]: 0.024 nM

Substance: Design 13 H2-L2 heterodimer (D3H44 heavy K145T_Q179D_S188F, light V133A_Q160K_T178R) (Fab)
- Kd [3]: 0.086 nM

Substance: Design 13 H1-L1 heterodimer (D3H44 heavy L143A_D144G_Q179R, light Q124E_V133W_Q160E_T180E) (Fab)
- Kd [3]: 0.087 nM

Substance: Design 11 H1: D3H44 heavy chain S188L_V190Y
- H1 Readout [4]: 24%
- H1 Readout [5]: 83%

Substance: Design 30 H1: D3H44 heavy chain D146G_Q179K
- H1 Readout [24]: 1%
- H1 Readout [25]: 96%

Substance: Design 30 H2: D3H44 heavy chain L143E_K145T
- H2 Readout [24]: 102%
- H2 Readout [25]: 1%

Substance: Design 15 H1: D3H44 heavy chain D146G_Q175R
- H1 Readout [12]: 1%
- H1 Readout [13]: 93%
